Tested on: MS2 coat protein
Assay: apparent KD of MS2 coat protein; designed switch direction (-1 OFF switch, 1 ON switch): -1; higher = weaker reporter binding
In short: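 Designed RNA switches with common flanks were transcribed on Illumina chips by stalled E. coli RNA polymerase and titrated with SNAP-549-labelled MS2 coat protein, from 0.7 or 1.5 nM doubling to 3 µM, in Tris-HCl pH 7.5 buffer with KCl, MgCl2, BSA, DTT, tRNA and Tween-20. Steps lasted 0.8–1.5 h (lowest) to 10–20 min (highest). Titrations ran without input, with 200 uM small-molecule ligand, or with an oligonucleotide input. Normalised cluster fluorescence was curve-fitted, and apparent KD is the per-design median over clusters.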

[1] = Eterna round: R95, input ligand: microRNA oligo, concentration not stated
[2] = Eterna round: R95, input ligand: FMN 200 uM
[3] = Eterna round: R95, input ligand: none
[4] = input ligand: microRNA oligo, concentration not stated

Sequence | apparent KD of MS2 coat protein (input ligand: FMN 200 uM) | apparent KD of MS2 coat protein (input ligand: none) | apparent KD of MS2 coat protein [1] | apparent KD of MS2 coat protein [2] | apparent KD of MS2 coat protein [3] | apparent KD of MS2 coat protein [4]
AGUAUGUCAGGAUAUCUCGGGUAGCCCACAACGACUACCGAAGAGAAGGGACAUGAGGAUCACCCAUGUACCAU [EX4 B.15] (Eterna round: R97, puzzle: Exclusion 4) | 29.9 nM | 34.3 nM |  |  |  | 
AAUAACAGAGGAUAUACUAUUUUAUGUAUUUAUUAUUUUAAACAUGAGGAUCACCCAUGUAGAAGGCUGAUUGA [JMF 70] (puzzle: Exclusion 2) |  |  | 28.5 nM |  |  | 
CUCCUACAUGAGGAUCACCCAUGUCAGGAUAUCUCAGUGGCACCUAAAUUCGCCACCCAGAGAAGGGACGUGCA [Erralaorge] (puzzle: Exclusion 1) |  |  | 13.4 nM |  |  | 
CCGAGGUGGCGGUCCUAUGACAUGAGGAUCACCCAUGUACCUCGCCACGAGCUUUUUGCUCACCUUAUAAUUCUCGG [Ragequen] (puzzle: Sensor v3, turn-off variant 1) |  |  | 17.6 nM | 18.7 nM | 19.4 nM | 
GGUCGACAUGAGGAUCACCCAUGUCAGGAUAUCGUCACUGGAGCUGCGGCUCCAGUGACGAGAAGGGAUAUAAU [E1/15-A3] (Eterna round: R97, puzzle: Exclusion 1) | 45.3 nM | 38.8 nM |  |  |  | 
UCUAAACAUGAGGAUCACCCAUGUGAGGAUAUGAUGCAGCAGUGGUCUACGCUGUGCAUCAGAAGGCGCAUGUG (puzzle: Exclusion 1) |  |  | 72.2 nM | 148 nM | 80.4 nM | 
AUUUUGUCAGGAUAUUGUUAGUUUAGUUGUUUGUAUUAGUUCGAGAAGGGACAUGAGGAUCACCCAUGUGAAAA [Ex4 #71] (Eterna round: R97, puzzle: Exclusion 4) | 38.9 nM | 37.2 nM |  |  |  | 
UGUGUGAGACAGGAUAUGCCGGAUGUAUUACUGGUAGAAGGGUCUACAUGAGGAUCACCCAUGUGGCCGGCCGG [Ex6 #83] (Eterna round: R97, puzzle: Exclusion 6) | 31.3 nM | 21.1 nM |  |  |  | 
GUCAGCUCGUCAGGAUAUACAUGAGGAUCACCCAUGUGAUCAAUAGCAGCUUCGGCUGCAAUAAUGUAGAAGGGACGAGCUGAC [ENG2/8-F] (Eterna round: R96, puzzle: Exclusion NG 2) | 129 nM | 180 nM |  |  |  | 578 nM
GUAUAACUACACGGGCUCAACAUGAGGAUCACCCAUGUCAUAUACGCAAGCUUUUUGCUUGUCUUAUCAGGCCGUGA [Ceatxe] (puzzle: Sensor v3, turn-off variant 1) |  |  | 16.5 nM | 13.5 nM | 12.4 nM | 
UUUUGACAUGAGGAUCACCCAUGUGAGGAUAUGGCUUGUGGCGCGUCUGUGUGGCGGGUUAGAAGGCGCGUGCG [-24.6, -21.7 kcal, A 16%] (Eterna round: R97, puzzle: Exclusion 1) | 30.8 nM | 38.3 nM |  |  |  | 
UUUUGCUCAGGAUAUACAUGAGGAUCACCCAUGUAUAUUGAAGAUAAUACAUGGGAAUGUAGAAGGGAGCUCAU [Omei Ex3 Pseudoloop 19] (Eterna round: R97, puzzle: Exclusion 3) | 73.5 nM | 156 nM |  |  |  | 
GGUUGUUGUUUCCGUUCUUACAUGAGGAUCACCCAUGUUUCUUGUCGUGCUCGCGUUGCUCGUCUGGCUGUCUGUUG [salish99_TOv1_r3_071] (puzzle: Sensor v3, turn-off variant 1) |  |  | 40.2 nM | 52.3 nM | 67.7 nM | 
ACAUGUAUUGCAGGAUAUGGGACACAUGAGGAUCACCCAUGUGACUACAUGUCAUACCAAGCGUCUCAGAAGGGUAUGUACAUG [Ex NG2 #38] (Eterna round: R96, puzzle: Exclusion NG 2) | 21.3 nM | 18.5 nM |  |  |  | 15.8 nM
GCCUCACUUGAGGAUCACCCAAGUCAGGAUAUUCACUGAACUGCGUAGCAAUUCGGCCGAAGAAGGGAUUCGGG [Veala] (Eterna round: R97, puzzle: Exclusion 1) | 75.2 nM | 107 nM |  |  |  | 
ACAUGAGGAUCACCCAUGUCCGGCUGGUCCGUUUCGGCUGUCGAGGAUAUAGUUCGGUGUCCGCGCUAGAAGGCGGGAGCCGGC [Aenatbe mod 62] (Eterna round: R96, puzzle: Exclusion NG 3) | 210 nM | 112 nM |  |  |  | 80.9 nM
GACCGUGCUUAGGAUAUACGUUAGGAGUUGACCGUAGAAGGGAGUACAUGAGGAUCACCCAUGUCACCUACAGC [Eternabot (L2) Solution 75] (Eterna round: R97, puzzle: Exclusion 6) | 15.9 nM | 16.5 nM |  |  |  | 

Sequence | apparent KD of MS2 coat protein (input ligand: FMN 200 uM) | apparent KD of MS2 coat protein (input ligand: none) | apparent KD of MS2 coat protein [1] | apparent KD of MS2 coat protein [2] | apparent KD of MS2 coat protein [3] | apparent KD of MS2 coat protein [4]
CUUUUCAGAGGAUAUAGAUAUUAUCACAUGAGGAUCACCCAUGUAACCCUACAUUCACCACUAGAAGGCUGUUAAG [lam1] (Eterna round: R97, puzzle: Exclusion 5) | 27.1 nM | 48.5 nM |  |  |  | 
AAUAACAAGCCGAUCCUCAACAUGAGGAUCACCCAUGUGCUCGUCUUGUAAAGUACUAUCACGAAAGUGAUAGUACA (Eterna round: R97, puzzle: Sensor, turn-off variant 1) | 319 nM | 419 nM |  |  |  | 
CCCUCACAUGAGGAUCACCCAUGUCAGGAUAUCUAGUCAGACAGUGUAGCACUAAUGAAGAGAAGGGACGUAUG [Edtetidi] (puzzle: Exclusion 1) |  |  | 23.9 nM |  |  | 
GUAAUACAUGAGGAUCACCCAUGUUAGGAUAUCUGCAGGACGUCUCCCGUAUAUCCGUAGAGAAGGGACAGUGG [Eternabot (L1) Solution 20] (Eterna round: R97, puzzle: Exclusion 1) | 43 nM | 33.6 nM |  |  |  | 
GCACGGAUGGUAGGAUAUCAGUGCGAUUAGCUCUGAGAAGGACCACAUGAGGAUCACCCAUGUACCUCAAUUAUCCUUCCGUGC [Eli exng1 - 022] (Eterna round: R96, puzzle: Exclusion NG 1) | 13.8 nM | 17.7 nM |  |  |  | 11.3 nM
AGGAAACAUGAGGAUCACCCAUGUGAGGAUAUUUGAAAGAAAAGAAAAGAAAGAAGAAGAAGAAGGCACAAGAA [Merneith] (Eterna round: R96, puzzle: Exclusion 1) |  |  |  |  |  | 23.8 nM
GUUGACUGAUGAGGAUAUUCAUAAGAAUGGGCCUUGGUUUUACAUGAGGAUCACCCAUGUUGACAGAAGAAGGCAUCAGUCUGA [Eternabot solution 28] (Eterna round: R96, puzzle: Exclusion NG 2) | 659 nM | 109 nM |  |  |  | 120 nM
AGAUGGCGAGGAUAUACAUGAGGAUCACCCAUGUGAGAAGAAAGAGUGAGGAAGAAAAGUAGAAGGCGCUGUCA [Mat - Exclusion 3 - Mod of Salish D19] (puzzle: Exclusion 3) |  |  | 95.4 nM | 209 nM | 76.1 nM | 
AUAUAGUCAGGAUAUCGAAGUGAGUGUUGGUGGGUAAGGUACGAGAAGGGACAUGAGGAUCACCCAUGUAGGAA [JR_Exclusion4)Sub004] (puzzle: Exclusion 4) |  |  | 48 nM |  |  | 
UGAAAGUGAGGAUAUCCAAUAUAUGACAUGAGGAUCACCCAUGUUUCCACUCGUACCUCCGGAGAAGGCACAAGGU [Ex5 #57] (Eterna round: R97, puzzle: Exclusion 5) | 25.5 nM | 29.4 nM |  |  |  | 
AUAGGCUGUUUUGUUCGUCACAUGAGGAUCACCCAUGUCUCGAGACUGUGCUUACGUUGCGUGUAUAGUCCGGGUAU [Eternabot (L1) Solution 5] (Eterna round: R97, puzzle: Sensor, turn-off variant 1) | 34.1 nM | 36.3 nM |  |  |  | 
AGUCGAAAGAUCCACAUGGACAUGAGGAUCACCCAUGUGCAAGCCUUUUUCUCGUCACUAUCGUCAAAAGACGAUAG [Omei Mir Offv1 A6] (Eterna round: R97, puzzle: Sensor, turn-off variant 1) | 185 nM | 234 nM |  |  |  | 
UUUGGGCCUGUGAGGAUAUCGGGUUUGAAAGGGCCCGAGAAGGCACAUGAGGAUCACCCAUGUAAGGGCCCGGG [-32.7, -30.6 kcal, A 23%, 5a-5abis] (Eterna round: R97, puzzle: Brourd's mod of Exclusion 4) | 17.3 nM | 19.5 nM |  |  |  | 
ACAUGUAAUGCAGGAUAUCGGACACAUGAGGAUCACCCAUGUGACCAGAGGUAUUGCUAAGAGUCUGAGAAGGGUAUGUACAUG [Ex NG2 #50] (Eterna round: R96, puzzle: Exclusion NG 2) | 20 nM | 19.1 nM |  |  |  | 17.5 nM
UUUUACAAGCUAAGAUCCUACAUGAGGAUCACCCAUGUGGUCCGGUGACGUGAGUCACCGGACUUAGCUCGUCUUGC [salish99_S_TOV1_R5_088] (Eterna round: R97, puzzle: Sensor, turn-off variant 1) | 36.2 nM | 43.7 nM |  |  |  | 
GUCAGCUCGUCAGGAUAUACAUGAGGAUCACCCAUGUGAUCAAUAGCAGCUUCGGCUGCAUUAAUGUAGAAGGGACGAGCUGAC [ENG2/5-B1] (Eterna round: R96, puzzle: Exclusion NG 2) | 34.7 nM | 368 nM |  |  |  | 33 nM
AGCACGACUGCAGGAUAUUCCGCAGUUGAUGCGGGAGAAGGGCAGGGCAGCACUUGAGGAUCACCCAAGUGACCGUGUUGCCAA [Mutated MS2 EX1.7] (Eterna round: R96, puzzle: Exclusion NG 1) | 35.8 nM | 25.1 nM |  |  |  | 17.2 nM
